Data taken from PMC10590331, “Purification and Biochemical Characterization of the DNA Binding Domain of the Nitrogenase Transcriptional Activator NifA from Gluconacetobacter diazotrophicus”.

Assays:
Details in all cases: protein: recombinant; tags: N-terminal His-tag (pET28a, NheI/BamHI) removed with thrombin; label: 5' TAMRA on forward strand; blunt
[1] = biological target: T1, NifA 2C-DBD (DNA binding domain with upstream Cys pair) (Gluconacetobacter diazotrophicus, UniProt A9H5T0 520-581); assay: fluorescence anisotropy; reduced, 5 mM DTT; 10 mM Tris pH 8, 60 mM NaCl, 0.2 mM MgCl2 (5 mM DTT when reducing), 900 nM probe, 0-80 µM protein, 30 min at room temperature
T1 sequence: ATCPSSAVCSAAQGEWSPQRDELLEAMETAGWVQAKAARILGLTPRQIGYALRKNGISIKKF

[2] = biological target: T2, NifA NC-DBD (DNA binding domain without Cys pair) (Gluconacetobacter diazotrophicus, UniProt A9H5T0 530-581); assay: fluorescence anisotropy; no DTT; 10 mM Tris pH 8, 60 mM NaCl, 0.2 mM MgCl2 (5 mM DTT when reducing), 900 nM probe, 0-80 µM protein, 30 min at room temperature
T2 sequence: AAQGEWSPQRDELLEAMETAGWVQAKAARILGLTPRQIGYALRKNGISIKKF

[3] = biological target: T1, NifA 2C-DBD (DNA binding domain with …); assay: fluorescence anisotropy; oxidized (disulfide), no DTT; 10 mM Tris pH 8, 60 mM NaCl, 0.2 mM MgCl2 (5 mM DTT when reducing), 900 nM probe, 0-80 µM protein, 30 min at room temperature

B1: nifH-UAS duplex, TAMRA-labeled (dsDNA)
DNA 1: CGGTTTTGTCAGGCTTCGCACAAAGCCG
DNA 2: CGGCTTTGTGCGAAGCCTGACAAAACCG
[1]
  Kd: 31.5 ± 8.1 µM
[2]
  Kd: 20 ± 5.6 µM
[3]
  Kd: 34.5 ± 8.4 µM
